Experimental data taken from the DeepSol protein solubility set.

Test: soluble on expression in E. coli; label from the status in PepcDB or PDB records

## MTMPYYASAEQIMRDRSELARKGIARGRSVVVLTFRDGVLFVAENPSTALHKVSELYDRLGFAAVGKYNEFENLRRAGIVHADMRGYSYDRRDVTGRSLANAYAQTLGTIFTEQPKPYEVEICVAEVGRVGSPKAPQLYRITYDGSIVDEQHFVVMGGTTEPIATAMRESYRADLDLEAAVGIAVNALRQGGAGEGEKRNVDVASLEVAVLDQSRPRRAFRRIAGTALEQLVPAEPAAASESAPEPKPDTETKPADTQD
  soluble on expression in E. coli: soluble

## MEYRITGKGVEISEAIKNYLEKRLDKIDRVIYDDDLVSFNVRIEKDGKNQYVVKFNMNLKGNIINVEERHPDIYTAIDFASDALEKQVKRLKERLKNHPHRSSALVETPLEEPGEFSPSDKVSSVKRVSLLNLDLDEAVMQMDELNHRFLVFRNVNTGEINLLYRDENGDIHLIEMAE
  soluble on expression in E. coli: not soluble

## MGSDKIHHHHHHMSTKHAIAAAHFLENKENEAWHDHTLWMVRTKRDKMSHSLPEWERLRELASEIKLYSNSHLDTLLEEFEKNAIANGAIVHWAKDAEEHNEIVLRILRQHDARNLIKSKSMLTEECHMNEFLMSKGIDVVESDLGERILQLMHLAPSHIVMPAIHIKREQISEMMEREMGTEKGNIDPTYLTHAARKNLREKFLHADVAMTGANFAVASTGEIVVCTNEGNADMGTSFPKVHIATMGMEKIVPNLEALGVFTRLLARSGTGQPITSYTSHYRRPPEGQEFHIIIVDNGRSDILAKPDHIRTLNCIRCGECMNTCPVYRRSGGYSYTYFIPGPIGINLGMLRNPEEYSDNVSACSLCLSCSNVCPVKIDLGEQIYRWRQDLDKIGKASKEKKVMSFGMKFLMERSGLFNTALKFAPVVNHLPRFMVYNGLNAWGKGRELPAFAKESFNDMWKNNKVR
  soluble on expression in E. coli: not soluble

## MSLAVIKQDDLIQSVADALQFISYYHPVDFIQAMHEAYLREESPAARDSMAQILINSRMCATGHRPICQDTGIVTVFVRVGMDVRWDGATMSVDDMINEGVRRAYNLPENVLRASILADPAGARKNTKDNTPAVIHYSIVPGDKVEVDVAAKGGGSENKSKMAMLNPSDSIVDWVLKTVPTMGAGWCPPGMLGIGIGGTAEKAAVMAKEVLMDPIDIHELKARGPQNRIEELRLELFEKVNQLGIGAQGLGGLTTVLDVKIMDYPTHAASLPVCMIPNCAATRHAHFVLDGSGPAELEAPSLDAYPEIVWEAGPSARRVDLDKITPEEVQSWKPGETLLLNGKMLTGRDAAHKRMVDMLNKGETLPVDLKGRFIYYVGPVDPVGDEVVGPAGPTTATRMDKFTRQILEQTGLLGMIGKSERGPIAIEAIKDNKAVYLMAVGGAAYLVAQAIKKSKVLAFAELGMEAIYEFEVKDMPVTVAVDTNGESVHITGPAVWQKKIAESLAVEVKEGGSHHHHHH
  soluble on expression in E. coli: soluble

## GPGSMASHAEGRLLRRSVPYVESWIAELTPKPVAPAAGAAPAPKGKAKGGTASTGTENATPMSRCCFAVGKVLEVSRHPESEKLYIEKIDLGAELNMLSNNEPRTILSGLQEFVKEEDFVNRLVLVIANLEPRKIGGIPSAGMVLCASTGEDPHDPASAGQGERKVVLLDIPEGTAVGERVVFEGHDMPYEPVLKKKLAKNFEEVMKDVRSSADGEVCWQGKPFQTSAGVIKASLCNARIS
  soluble on expression in E. coli: soluble

## MSLKPSLDELESLLIARHTPNIHNKLKKGKVAILGLGGLGSNIAISLARIGVGELLLIDYDVVEPSNLNRQQYFIDDIGKLKTDAMIENIKKINPFIKLNKRDIFLNKNNMDTIKDSDLIIEAFDDASCKAQVCNYVLINLKDKYLIASSGMAGYYDSNIITTKKIKDRFYICGDFVNEAKFGEEGHHHHHH
  soluble on expression in E. coli: not soluble

## MAHHHHHHMRLYNSLKQELVAATGAKMLGSGGLIDWSKHQVFDNPSDISQTFNEIIDMLAEYFDVDVYATRLNYYRDGTQWKPQHHDSHAYGGRALREDFTVGLSLGATRSLLFVHEASQRDFNFPQLNGDCFAFTGEVNSLFTHGVPRVHTPTGDRFSIIAWGRRRNLNERNGGVPSSAAAQVKGYRINTMEDAVEVAKQLVAAEPGAAAAKKAMPPPCASGDASSGGVATATRPAKRHKRRLQ
  soluble on expression in E. coli: soluble

## MEQLLFRHNRPGRCVTFAEYRAEGGFAALEKALAGMSPNDVQQVVIDSGLRGRGGAGFPTGKKWSFVPRDIPGPRYLICNCDEMEPGTYKDRVLLEANPYSLVEGMTLAAYAIGVAHAFIFIRRGYEEAAENCRRAIAEAKAAGLLGENILGTGFSLELDVHQSAGRYICGEETALMNALEGKRANPRSKPPFPAVKGLWGRPTVVNNVETLANIPAIVANGAAWFKGLARIPEAAGMKLFCVSGHVNNTACFELPLGMTLGEIIDGPCGGMLPGREFKACIPGGASTPFFTKEHWHVPMDFDTVAKAGSRLGTGGIVVFDRDTCMVAATLNLIVFYARESCGWCTPCREGLPFVQDVLARIEAGEGREEHIGILREHIQYLNYSFCPLAPGAMGPVEGLLRLFEGEIREHIVLGRCPFGGKLEHHHHHH
  soluble on expression in E. coli: not soluble

## MDESMRHDIALFRYGLIAPLVNGQVEPKAYLNEVGGRVHSIPHQGDKPIAAKTILDWCARYKKGGFDALKPKRRSDRGRSRRLSPDDEDHILALRKEHPTMPVTLFYEQLTKQGDIPTTLSYFTIYRLLKKHNLVGKEILPMPERKRFAYDQINELWQGDLSHGPTIRVHGKAQKTFLIAYIDDCSRLVPYAQFFPSEKFDGLRIVTKEAVLRCGKPKRIYSDNGKIYRSEVLQYACAEMGITLIHTQPYDPQSKGKIERFFRTVQTRFYPLLELNPPKSLDELNERFWKWLEEEYHRKPHASLDGKTPHEVFQSQVERVVWIEDIDWLDAIFLKREHRKVKADGTITLNKQLYEVPPRFIGQSIELRYDERGVYVYEDGKRVAEAIRVRLEDNAYVKRHRSPFAAVSAKEGEQDV
  soluble on expression in E. coli: not soluble

## MSLDIQPFSMPLSSPLSTADGTIESRRGFLVRTEIDGVAGVGEAAPLPGWTESYDACQAALCGVEKPKQALEDNVFDDTPAARHAVSLAVADAAARRAGVPLYRRLGAGERVESVPVNATVGDGSPSATAEAVADAAAAGFPAAKVKVGNRSLDADIERIEAVRQRYPDIELRVDANGAWEFETAREAVESMSALGVAVLEQPLPAEALDNHRRLRGHGIDIALDEGLLRHGVDAAIAAEAADCLVCKPMALGGVDIARSAAERARADGWDVIVTTTIDGVVARAAAVHLAASVPDVRPCGLATGGRLASDVGPDAAPVSDGTAAVPQGKGNIPPLEGHHHHHH
  soluble on expression in E. coli: soluble

## MGSDKIHHHHHHTQKPDITYMPQPPFNPPTYVCYKAPAPIKIDGKLSPGEWDAIPWTSDFVDIEGDKRPAPHFQTRAKMTYDDNGMYFAVLMEEPHVWATITEHDAVIFHDNDFEIFLNPTNDTHNYLEYEVNALGTEWDLFLTRPYRDNPQVLNNWEFTGMKSAVYVDGTLNNPKDTDKSWSVEVFIPWTSVFQMDRGKEKPEIGEQIRVNFSRVEWTTDVKDGKYVKVPIQGEDKIREYNWVWAPTGVINIHMPEYWGYVQISDKIAGEGETPFVKHPSEETKWILRNLYYRQNEFAATFGHYADNINDLKANELCPQEIANQLEIHTTPSMYEISLPAPDGTVWNIRQDGLVWPKKK
  soluble on expression in E. coli: not soluble

## MGSDKIHHHHHHMNMFSHINVDACKTPGCKNLGILGSPDYLPQGKNVLCRACGFLFPIISARSLNLFRQAANQPWKGLVKSCPHCGGTSLKKYGFSTKGERRMYCRQCNKTFISYTAIRSDARQENLATLIGEGASLVEIRAALAIDSTGFSRELQKLSRRANQAERDFVFPAFDIAMSTRAFRVKFNGGDSSLYVLVTAEEESGKVVAISTNYSAQPVEADYQYHSDYEERLPSGTLAHLVQRKEALTMRRNVLFDVDYGPAVLYKNDPGMLVKPVLPAYRHFELVQALTDERSLNVQHYLDHECFILGGCMMANFSYLRQGRCHISFVRERGVTPPKRDLPPRLFLSGGIRNNVWRTFSTRDYAMAVCNLTGNKKVSLLRHATLNSATAFIRYVHNHPFLPHLNRMSPGNVVAVLDYLKFEYNASRN
  soluble on expression in E. coli: not soluble

## MGSDKIHHHHHHMENAPEPIETVKKGKCKVECQNKERFILIEKENGKAMYHTKIMMDIYKFGVYEKKHEFRLSLRALFNGERIVEETHLYPIKEGDKFIGIFYGYRKPIKKPLIKYQINGTKKAYALARAYYMEFRFKAGSVFCYFKGLYRLLDKKRTNNHYNKVLFSMFTDLEQQVYKFYGKKYPEQGPLIKWILKNLK
  soluble on expression in E. coli: not soluble

## MGSDKIHHHHHHMKEQYKIIVLSDELSKEKIQNTLDKNKCKTIVHLVDVSAIVQIENSFQYIVIWRMDAEKITNELINRGVQSTKIINLTKYMYEWRNKLISIYQINPDLMSLYISMKKAKGDPTYELFATGLSYPHCGISTELLSKKSIKLTLPSQDLYYDYLIASQLLSNNHSFQYCLIGIAYFSFYFDMSLSSESYRIHKVYYPLFQDGHHTVVHSHLPTDGFSHLDTPKPLFSIFNMHFEYILLDELKNESLILPWIHAEWNTTPPHIPFEEHGKIRAASHAKLSYPHTLVENKTIFKKYLELLLKHDIKPLIVVFPVTSHYFNCSSKKLKEDFYNVIKDFQSQYSFQIIDLFDSPLFCDDDFYDSDHMNKKGANKMSVLLNMFIQERKV
  soluble on expression in E. coli: not soluble

## MGSDKIHHHHHHMLKRIATSLLDIAYDEQGNADGWPVVLLHGFPYDIHAYDAVTPRLTSQGARVITPYLRGYGPTRFLAPTTLRSGQQAALGADLLALLDALQIGQAVLGGYDWGGRAACIVAALYPSRARGLVSVNGYNIQNIAAASQPADPEKEYRMWYQYYLHGERGRAGLTENRREFCRLLWSLWSPTWHFGDDTYARSAAAFDNPDFVDVVVHSYRHRFGLVDGDPQFDDIERRLSAMPPITVPAITLEGDADGVSPPGGRQANSQRFTGRHQNRVVPNAGHNLPQEAPGAFADAVLDINAWAARRSCACGD
  soluble on expression in E. coli: not soluble

## MKITPLDIQQQQFKGKMLGGIDPEDVDSFLQLVAQEMEGLIRENTDLREQCRKAAADAEQTARQERELREAMLAAQKITEEMKANAQKEASLIVSEAEVKAEKILVDAERRLGQLNEQLQDLRRQKLQFESAFKALLDTHYKMISLEDA
  soluble on expression in E. coli: not soluble

## MPGGRRRGFDDQVALQTAMELFWRQGYEGTSITDLTKALGINPPSLYAAFGSKRDLFEKTLDRYMCERTLQLEEAMVRPTAHEAVLDFLTGRVEVFTAPGQPFGCMTVQAGLASGEPHHEIVDLLTAAREQMRQTVLDRFEKALADGDLPAGTDCTALARYVMAAVYGLSVEAASGAPREELTAAAILAAQVVPRAQM
  soluble on expression in E. coli: soluble

## MECSQEDVVNDFIALEKIGSEVDINLDGVIKSKECSNTNEADIISNLITAIEESLSCTSVCTAVSLETVAQKLDAYADPSLNTQMSFSTASDLSSMEQDYVKASDDPFDLNHQPSPLQVWRDQGKITGFQMMCDDQKVTVVDSLECLAQSEQHLEPVYFDPRVNLAIPCPPDDFEILEDYGSTSNASVNSDDASTAELGPTSEEFEEWVRKIEQNY
  soluble on expression in E. coli: not soluble

## MAHHHHHHMYADDLSIIVKGQSREDAIPTANMVLKKLHAWSQENGLAISPSKCEAAWFTLSTHTESDYDREGKRPLVVAGCEIPVMTMGASRTTKLLGMDLDPRLTLNVAASKQCAASSQRISQLRCIAHKEAGPSPHDLRMFVIGYGASKLRYGSELIWAVATDSAKNEMQKTYATLARIVSGVPSTVDPESALLEANMPPLHVLCLRARLSIFENTRACQMDWMRRPPPEPPPRAVFRISPLSRDELYAFVDAYTKEYGITQSSPREERFFRSSIPPWFAASAHRVTIGVELPTDHSITEEQLIREKRRVSEEALALHSHRSWILAKSGGVDVPKSAGVGILLSSLNSSEIIEKASINCGARPCSYRTESRALLLALERLIIPRIQHRHETLLVVADSQSLLAALNKGPLSQTDWTEDQIWQRLLTLTCAGWSVRLQFFTDIVEYMLTSLRISMRRRLWRLDNTRSMESHIYGIRIC
  soluble on expression in E. coli: not soluble

## MGHHHHHHSHRIVILQGAAGIGKSTLARQVKEAWGRGQLYGDRFQHVFYFSCRELAQSKVVSLAELIGKDGTATPAPIRQILSRPERLLFILDGVDEPGWVLQEPSSELCLHWSQPQPADALLGSLLGKTILPEASFLITARTTALQNLIPSLEQARWVEVLGFSESSRKEYFYRYFT
  soluble on expression in E. coli: not soluble
